Results reported in publication PMC12489474, “New structural insights into the control of the retinoic acid receptors RAR/RXR by DNA, ligands, and transcriptional coregulators” (Nucleic Acids Research, 2025).

B7: NCoRNID (nuclear receptor interaction domain of the Nuclear receptor CoRepressor) (domain or fragment, UniProt Q60974 2059-2325, looked up)
chain: QVPRTHRLITLADHICQIITQDFARNQVPSQASTSTFQTSPSALSSTPVRTKTSSRYSPESQSQTVLHPRPGPRVSPENLVDKSRGSRPGKSPERSHIPSEPYEPISPPQGPAVHEKQDSMLLLSQRGVDPAEQRSDSRSPGSISYLPSFFTKLESTSPMVKSKKQEIFRKLNSSGGGDSDMAAAQPGTEIFNLPAVTTSGAVSSRSHSFADPASNLGLEDIIRKALMGSFDDKVEDHGVVMSHPVGIMPGSASTSVVTSSEARRDE
notes: Unlabelled form used for SEC-MALS, SEC-SAXS and HDX-MS; also called NCOR1

What was measured:
[1] = molecular target: RARalpha dAB dF;RXRalpha dAB;NCoR NID (Mus musculus / Homo sapiens (Methods …, UniProt P11416;P19793;Q60974 82-421;126-462;2059-2325, ||)); assay: SEC-SAXS, HDX-MS; BMS493; Fluorescence anisotropy: 20 mM Tris-HCl pH 7.5, 75 mM NaCl, 75 mM KCl, 2 mM CHAPS, 4 mM MgCl2, 2 mM TCEP, 10% glycerol, 0.5 nM Cy5-DNA, 4 uM ligands, 294 K; details: protein: recombinant;recombinant;recombinant, tags: N-terminal His6 (pET15b), copies: 1;1;1
[2] = molecular target: T1, RARalpha dAB dF;RXRalpha dAB (Mus musculus / Homo sapiens (Methods …, UniProt P11416;P19793 82-421;126-462, |)); assay: fluorescence anisotropy; BMS493; Fluorescence anisotropy: 20 mM Tris-HCl pH 7.5, 75 mM NaCl, 75 mM KCl, 2 mM CHAPS, 4 mM MgCl2, 2 mM TCEP, 10% glycerol, 0.5 nM Cy5-DNA, 4 uM ligands, 294 K; details: protein: recombinant;recombinant, tags: N-terminal His6 (pET15b), copies: 1;1, label: Cy5 on forward strand
[3] = molecular target: T1, RARalpha dAB dF;RXRalpha dAB; assay: fluorescence anisotropy; apo; Fluorescence anisotropy: 20 mM Tris-HCl pH 7.5, 75 mM NaCl, 75 mM KCl, 2 mM CHAPS, 4 mM MgCl2, 2 mM TCEP, 10% glycerol, 0.5 nM Cy5-DNA, 4 uM ligands, 294 K; details: protein: recombinant;recombinant, tags: N-terminal His6 (pET15b), copies: 1;1, label: Cy5 on forward strand
[4] = molecular target: T1, RARalpha dAB dF;RXRalpha dAB; assay: fluorescence anisotropy; AM580 + CD3254; Fluorescence anisotropy: 20 mM Tris-HCl pH 7.5, 75 mM NaCl, 75 mM KCl, 2 mM CHAPS, 4 mM MgCl2, 2 mM TCEP, 10% glycerol, 0.5 nM Cy5-DNA, 4 uM ligands, 294 K; details: protein: recombinant;recombinant, tags: N-terminal His6 (pET15b), copies: 1;1, label: Cy5 on forward strand
[5] = molecular target: T2, HsRXRAΔAB (retinoid X receptor alpha without the A/B domain) (human (printed as HsRXRAΔAB; the same …, UniProt P19793 126-462); assay: HDX-MS; RAR/RXR and RR–DNA (DR0, DR1, DR5, IR0) with and without NCoRNID, with BMS493; 4°C, 20 μM complex diluted 10-fold into deuterated buffer pD 7.5; 4 s to 10 800 s; RAR and RXR read as subunits of the heterodimer; details: both partners purified
T2 construct: A/B domain removed; In the rows of this molecule it stood as a subunit of the RAR/RXR heterodimer; Vector pET28b; also called RXRα; MmRXRAΔAB; source: E. coli BL21 (DE3), purified (HisTrap HP, thrombin cleavage, SEC Superdex 75); not shown: His6, N-terminal, cleaved
T2 sequence (looked up): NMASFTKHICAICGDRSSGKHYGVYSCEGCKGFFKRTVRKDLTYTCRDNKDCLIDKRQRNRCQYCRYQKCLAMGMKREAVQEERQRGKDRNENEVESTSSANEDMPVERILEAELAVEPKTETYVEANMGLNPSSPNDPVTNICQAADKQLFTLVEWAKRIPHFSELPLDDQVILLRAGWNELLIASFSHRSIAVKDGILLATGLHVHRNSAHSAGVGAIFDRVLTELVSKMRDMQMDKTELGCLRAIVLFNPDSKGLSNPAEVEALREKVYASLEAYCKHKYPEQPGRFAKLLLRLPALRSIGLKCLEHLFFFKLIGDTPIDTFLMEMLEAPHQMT

[6] = molecular target: Alexa488-labeled TIF-2NRID; assay: fluorescence polarisation; steady-state fluorescence anisotropy; RAR/RXR without DNA titrated (from 4 μM, 2-fold dilutions) against 10 nM Alexa488-TIF-2NRID with 12 μM AM580 and CD3254; 20 mM Tris–HCl pH 7.5, 75 mM NaCl, 75 mM KCl, 2 mM CHAPS, 4 mM MgCl2, 5 mM DTT, 10% glycerol
[7] = molecular target: B7; assay: SEC-MALS; with SDS–PAGE; complexes of RR–DNA and NCoRNID formed in the presence of BMS493; details: both partners purified
[8] = molecular target: NCoRNID mut1 (IR region replaced by a fully disordered segment) (UniProt Q60974); assay: MST; RAR/RXR bound to DR1 DNA (RR–DR1), no ligand (apo); heterodimer titrated against labelled NCoRNID; same buffer, 22°C
[9] = molecular target: Alexa488-labeled TIF-2NRID; assay: fluorescence polarisation; steady-state fluorescence anisotropy; RR–DR5 titrated against 10 nM Alexa488-TIF-2NRID with 12 μM AM580 and CD3254; same buffer
[10] = molecular target: NCoRNID mut2 (point mutations designed to disrupt the helical folding of the IR region) (UniProt Q60974); assay: MST; RAR/RXR bound to DR5 DNA (RR–DR5), no ligand (apo); heterodimer titrated against labelled NCoRNID; same buffer, 22°C
[11] = molecular target: Alexa488-labeled TIF-2NRID; assay: fluorescence polarisation; steady-state fluorescence anisotropy; RR–DR1 titrated against 10 nM Alexa488-TIF-2NRID with 12 μM AM580 and CD3254; same buffer
[12] = molecular target: TIF-2NRID (nuclear receptor interaction domain of the transcriptional intermediary factor 2); assay: SEC; with SDS–PAGE; complexes of RR–DNA and TIF-2NRID formed in the presence of both agonists (AM580, CD3254)
[13] = molecular target: Alexa488-labeled TIF-2NRID; assay: fluorescence polarisation; steady-state fluorescence anisotropy; RR–DR0 titrated against 10 nM Alexa488-TIF-2NRID with 12 μM AM580 and CD3254; same buffer
[14] = molecular target: Alexa488-labeled TIF-2NRID; assay: fluorescence polarisation; steady-state fluorescence anisotropy; RR–IR0 titrated against 10 nM Alexa488-TIF-2NRID with 12 μM AM580 and CD3254; same buffer
[15] = molecular target: NCoRNID mut2 (point mutations designed to disrupt the helical folding of the IR region) (UniProt Q60974); assay: MST; RR–DR5 with BMS493; heterodimer titrated against labelled NCoRNID; same buffer, 22°C
[16] = molecular target: T2, HsRXRAΔAB (retinoid X receptor alpha …); assay: SEC-MALS; purified RAR/RXR heterodimer; single peak, molecular weight matching the heterodimer; details: both partners purified
[17] = 5' overhang 1 nt at both ends (so in the source)

B1: DR1 idealized (dsDNA)
DNA 1: CTAGGTCAAAGGTCAGC
DNA 2: GCTGACCTTTGACCTAG
- binding result ([1]; blunt): binds

B2: IR0 Trim16 (dsDNA)
DNA 1: GCAGGGTCATGACCCCGC
DNA 2: CGCGGGGTCATGACCCTG
- binding result [1, 17]: binds

B3: DR5 Rarb2 Cy5 (dsDNA)
DNA 1: AGGGTTCACCGAAAGTTCACT
DNA 2: AGTGAACTTTCGGTGAACCCT
- Kd ([2]; blunt): 15 ± 2 nM
- Kd ([3]; blunt): 1.7 ± 0.8 nM
- Kd ([4]; blunt): 2.4 ± 0.9 nM

B4: DR1 idealized Cy5 (dsDNA)
DNA 1: CTAGGTCAAAGGTCAGC
DNA 2: GCTGACCTTTGACCTAG
- Kd ([2]; blunt): 24.6 ± 5 nM
- Kd ([3]; blunt): 6.1 ± 2.2 nM
- Kd ([4]; blunt): 8.7 ± 2.9 nM

B5: DR0 Hoxb13 Cy5 (dsDNA)
DNA 1: GAAGGTCAAGGCCAAG
DNA 2: CTTGGCCTTGACCTTC
- Kd ([2]; blunt): 101 ± 48.1 nM
- Kd ([3]; blunt): 33.5 ± 16.4 nM
- Kd ([4]; blunt): 24.1 ± 17.3 nM

B6: DR5 Rarb2 (dsDNA)
DNA 1: AGGGTTCACCGAAAGTTCACT
DNA 2: AGTGAACTTTCGGTGAACCCT
- binding result ([1]; blunt): binds

Binder: B7
- binding result [5]: binds

B8: RAR/RXR heterodimer (RARAΔABF with RXRAΔAB) (complex)
chain 1: PRIYKPCFVCQDKSSGYHYGVSACEGCKGFFRRSIQKNMVYTCHRDKNCIINKVTRNRCQYCRLQKCFDVGMSKESVRNDRNKKKKEAPKPECSESYTLTPEVGELIEKVRKAHQETFPALCQLGKYTTNNSSEQRVSLDIDLWDKFSELSTKCIIKTVEFAKQLPGFTTLTIADQITLLKAACLDILILRICTRYTPEQDTMTFSDGLTLNRTQMHNAGFGPLTDLVFAFANQLLPLEMDDAETGLLSAICLICGDRQDLEQPDKVDMLQEPLLEALKVYVRKRRPSRPHMFPKMLMKITDLRSISAKGAERVITLKMEIPGSMPPLIQEMLENSEGLD
chain 2: NMASFTKHICAICGDRSSGKHYGVYSCEGCKGFFKRTVRKDLTYTCRDNKDCLIDKRQRNRCQYCRYQKCLAMGMKREAVQEERQRGKDRNENEVESTSSANEDMPVERILEAELAVEPKTETYVEANMGLNPSSPNDPVTNICQAADKQLFTLVEWAKRIPHFSELPLDDQVILLRAGWNELLIASFSHRSIAVKDGILLATGLHVHRNSAHSAGVGAIFDRVLTELVSKMRDMQMDKTELGCLRAIVLFNPDSKGLSNPAEVEALREKVYASLEAYCKHKYPEQPGRFAKLLLRLPALRSIGLKCLEHLFFFKLIGDTPIDTFLMEMLEAPHQMT
notes: retinoic acid receptor alpha, residues 82-421 of Uniprot entry P11416; as the chain of m1; as the chain of m2; 1:1 heterodimer by SEC-MALS; this is told in the format of each assay; also called RR–DR0; source: E. coli BL21 (DE3); RAR and RXR purified separately, mixed (2-fold excess of RAR), heterodimer purified by SEC (Superdex 200); not shown: His6, N-terminal, cleaved
- Kd [6]: 126 nM
- stoichiometry N [7]: 1
- Kd [8]: 347 nM
- Kd [9]: 27.7 nM
- Kd [10]: 576 nM
- Kd [11]: 30.1 nM
- stoichiometry N [12]: 1
- Kd [13]: 55.1 nM
- Kd [14]: 22.7 nM
- Kd [15]: 538 nM

B9: MmRARAΔABF (retinoic acid receptor alpha without the A/B and F domains) (domain or fragment, UniProt P11416 82-421, looked up)
chain: PRIYKPCFVCQDKSSGYHYGVSACEGCKGFFRRSIQKNMVYTCHRDKNCIINKVTRNRCQYCRLQKCFDVGMSKESVRNDRNKKKKEAPKPECSESYTLTPEVGELIEKVRKAHQETFPALCQLGKYTTNNSSEQRVSLDIDLWDKFSELSTKCIIKTVEFAKQLPGFTTLTIADQITLLKAACLDILILRICTRYTPEQDTMTFSDGLTLNRTQMHNAGFGPLTDLVFAFANQLLPLEMDDAETGLLSAICLICGDRQDLEQPDKVDMLQEPLLEALKVYVRKRRPSRPHMFPKMLMKITDLRSISAKGAERVITLKMEIPGSMPPLIQEMLENSEGLD
notes: retinoic acid receptor alpha, residues 82-421 of Uniprot entry P11416 (DBD, hinge and LBD; A/B and F domains removed); In the rows of this molecule it stood as a subunit of the RAR/RXR heterodimer; Vector pET15b; also called RARα; NR1B1; source: E. coli BL21 (DE3), purified (HisTrap HP)
- stoichiometry N [16]: 1

B10: IR0 Trim16 Cy5 (dsDNA)
DNA 1: GCAGGGTCATGACCCCGC
DNA 2: CGCGGGGTCATGACCCTG
- Kd [2, 17]: 29.1 ± 24.2 nM
- Kd [3, 17]: 1.9 ± 1.3 nM
- Kd [4, 17]: 3.8 ± 3.1 nM
